Laboratory results published in FireProtDB (doi:10.1002/prot.24420).
Where “and” joins values, the source holds several entries; their conditions need not be identical. Identical values can stand only once.

B1: D595A|N715A, Q8GRA2 (parent)
chain: MKKTRFPNKLNTLNTQRVLSKNSKRFTVTLVGVFLMIFALVTSMVGAKTVFGLVESSTPNAINPDSSSEYRWYGYESYVRGHPYYKQFRVAHDLRVNLEGSRSYQVYCFNLKKAFPLGSDSSVKKWYKKHDGISTKFEDYAISPRITGDELNQKLRAVMYNGHPQNANGIMEGLEPLNAIRVTQEAVWYYSDNAPISNPDESFKRESESNLVSTSQLSLMRQALKQLIDPNLATKMPKQVPDDFQLSIFESEDKGDKYNKGYQNLLSGGLVPTKPPTPGDPPMPPNQPQTTSVLIRKYAIGDYSKLLEGATLQLTGDNVNSFQARVFSSNDIGERIELSDGTYTLTELNSPAGYSIAEPITFKVEAGKVYTIIDGKQIENPNKEIVEPYSVEAYNDFEEFSVLTTQNYAKFYYAKNKNGSSQVVYCFNADLKSPPDSEDGGKTMTPDFTTGEVKYTHIAGRDLFKYTVKPRDTDPDTFLKHIKKVIEKGYREKGQAIEYSGLTETQLRAATQLAIYYFTDSAELDKDKLKDYHGFGDMNDSTLAVAKILVEYAQDSNPPQLTDLDFFIPNNNKYQSLIGTQWHPEDLVDIIRMEDKKEVIPVTHNLTLRKTVTGLAGDRTKDFHFEIELKNNKQELLSQTVKTDKTNLEFKDGKATINLKHGESLTLQGLPEGYSYLVKETDSEGYKVKVNSQEVANATVSKTGITSDETLAFENNKEPVVPTGVDQKINGYLALIVIAGISLGIWGIHTIRIRKHD

Variants of: B1
Conditions: Streptococcus pyogenes; pH 7.2; Thermal; CD; Potassium phosphate 50mM; structure 2XIC; whole UniProt chain shown

Variant	unfolding enthalpy (van 't Hoff)	change of melting temperature, mutant - wild type (higher = more stable)
D595A N715A	62.1 kcal/mol and 71.4 kcal/mol	
N715A	147 kcal/mol and 85.9 kcal/mol	
C426A	113 kcal/mol and 123 kcal/mol	-1.7 °C and 0.2 °C
D595A	108 kcal/mol and 115 kcal/mol	
